Measured values reported in the supplement of paper PMC11780869.

Test system: Bacillus subtilis
Assay: cleaved RNA product abundance (RNA/gDNA barcode ratio) relative to median wild-type variant (ratio to wild type); higher = more accumulation of the downstream cleavage product
Outline: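 Reporter mRNAs (truncated aprE or tetM) carrying barcoded, mutagenized RNase Y cleavage-site windows were made from oligos with a 9% error rate and integrated into the B. subtilis chromosome. Cultures grew in LB at 37°C from OD600 0.0003 to 0.3. Cleaved RNA was gel-selected, reverse transcribed and barcode-sequenced alongside genomic DNA barcodes, with UMI collapsing. Cleaved product abundance is the RNA:gDNA barcode ratio per variant, scaled to the median wild-type variant.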

[1] = experiment (reporter, strain, medium): exp 4a: truncated aprE reporter, strain BJT201 with 2% xylose (RNase J1 expressed), cleavage site: cggR-gapA (positions -7 to +36 mutated)
[2] = experiment (reporter, strain, medium): exp 8a: truncated aprE reporter, strain BJT201 with 2% xylose (RNase J1 expressed), cleavage site: glnRA (positions -5 to +31 mutated)
[3] = experiment (reporter, strain, medium): exp 2b: truncated aprE reporter, strain BJT200, cleavage site: cggR-gapA (positions -7 to +36 mutated)

Row | Sequence | cleaved RNA product abundance [1] | cleaved RNA product abundance [2] | other results
1 | ACAGACGAAGGAGCCGCAATGAAGTTATTAACGGATGAATAATCCCTCAATATAAATATCTCTCACTTATTTAAA | 0.145 |  | 
2 | CGACATGTCCCGCTTCTTTCATTAATCCGTTGGCAACTGATTTGCTATATACATTTACCTTTTAAGAGGAGGAAT |  | 0.729 | 
3 | ACAGACGAAGGAGCCGCAAAGAAGTTATTAAGTGATGAATAATCTCTCAATATAAATATCTCTCACTTATTTAAA | 0.172 |  | cleaved RNA product abundance [3]: 0.113
4 | ACAGACGAAGGAGCCGCAAAGAAGTGATTAAGGGATGAATACTCCCTCAATATAAATATCTCTCACTTATTTAAA | 0.354 |  | 
5 | ACAGACGAAGGAGCCGCAAAGAAGTTATTAAGGGAAGCATAATCCCTCAATATAAATATCTCTCACTTATTTAAA | 0.551 |  | 
6 | CGACATGTCCCGCTTCTTTCATTAATCCCTTAGCAACTGATTTGCTATATACATTTACCTTTTAAGAGGAGGAAT |  | 0.25 | 
7 | CGACATGTCCCGCTTCTTTCATTACTCCATTAGCAACTGTTTTGCTATATACATTTACCTTTTAAGAGGAGGAAT |  | 1.18 | 
8 | ACAGACGAAGGAGCCGCACAGAAGTTATTAAGGGATTAATAATCCCTCAATATAAATATCTCTCACTTATTTAAA | 0.962 |  | 
9 | CGACATGTCCCGCTTCTTTCATTAATACGTTAGCAACTGTTTTGCTATATAGATTTACCTTTTAAGAGGAGGAAT |  | 0.956 | 
10 | CGACATGTCCCGCTTCTTTCATTAATCCGTTAGCAACTGTTTTGCTATATATATATACCTTTTAAGAGGAGGAAT |  | 1.12 | 
11 | ACAGACGAAGGAGCCGCAAAGAAGTTATTAAAGTATGAATAATCCCTCAATATAAATATCTCTCACTTATTTAAA | 0.124 |  | cleaved RNA product abundance [3]: 0.0922
12 | ACAGACGAAGGAGCCGCAAAGAAGTTATTAATGGATGAATATTCCCTCAATATAAATATCTCTCACTTATTTAAA | 0.107 |  | 
13 | ACAGACGAAGGAGCCGCAAAAAAGTTATTAAAGGATGAATAATCCCTCAATATAAATATCTCTCACTTATTTAAA | 0.224 |  | cleaved RNA product abundance [3]: 0.164
14 | CGACATGTCCCGCTTCTTTCATTATTCCGTTAGCAACTGTTTTGCTATGTACATTTACCTTTTAAGAGGAGGAAT |  | 0.184 | 
15 | ACAGACGAAGGAGCCGCAAAGAAGTTATTACGGGATGAATAATACCTCAATATAAATATCTCTCACTTATTTAAA | 0.112 |  | 
16 | ACAGACGAAGGAGCCGCAAACAAGGTATTAAGGGATGAATAATCCCTCAATATAAATATCTCTCACTTATTTAAA | 1.23 |  | 
17 | CGACATGTCCCGCTTCTTTCATTATTCCTTTACCAACTTTTTTGCTATATATATATACCTTTTAAGAGGAGGAAT |  | 0.182 | 
18 | CGACATGTCCCGCTTCTTTCATTAATCATTTAGCAACTGTTTTGCTATATACATTTACCTTTTAAGAGGAGGAAT |  | 0.249 | 
19 | ACAGACGAAGGAGCCGCAAAGAAGTAATTAAGGGATGAAAAATCCCTCAATATAAATATCTCTCACTTATTTAAA | 0.272 |  | cleaved RNA product abundance [3]: 0.163
20 | ACAGACGAAGGAGCCGCAAAGAAGTAATTAAGGGATGAATAATCCCTCATTATAAATATCTCTCACTTATTTAAA | 0.278 |  | 
21 | ACAGACGAAGGAGCCGCAACGAAGTTATTAAGGGAAGAATAATCCCTCAATATAAATATCTCTCACTTATTTAAA | 1.23 |  | 
22 | ACAGACGAAGGAGCCGCTAAGAAGTTATTAAGGGATGAATAATCCCTCAATGTAAATATCTCTCACTTATTTAAA | 0.0932 |  | 
23 | ACAGACGAAGGAGCCGCAAAGAAGTTATTAAGTGATGAACAATCCCTCAATATAAATATCTCTCACTTATTTAAA | 0.109 |  | 
24 | ACAGACGAAGGAGCCGCAAAGAAGTTATTAAGGGATGAATAATCCATCCATATAAATATCTCTCACTTATTTAAA | 0.222 |  | 
25 | ACAGACGAAGGAGCCGCAAAGAACTTATTAAGGTATGAATAATCCCTCAATATAAATATCTCTCACTTATTTAAA | 0.108 |  | cleaved RNA product abundance [3]: 0.0959
26 | ACAGACGAAGGAGCCGCAAAGAAGTTATTTAGGGATGAATAATCCCTCAATACAAATATCTCTCACTTATTTAAA | 0.0541 |  | 
27 | ACAGACGAAGGAGCCGCAAAGAAGTCATTAAGGGATGAATAATCCCTCAATATAAATATCTCTCACTTATTTAAA | 0.255 |  | cleaved RNA product abundance [3]: 0.186; cleaved RNA product abundance (experiment (reporter, strain, medium): exp 6: tetM reporter, strain 168, cleavage site: cggR-gapA (positions -7 to +36 mutated)): 0.244
28 | ACAGACGAAGGAGCCGCAAAGAAGATGTTAAGGGATGAATAATCCCTCAATATAAATATCTCTCACTTATTTAAA | 0.741 |  | cleaved RNA product abundance [3]: 0.513
29 | CGACATGTCCCGCTTCTTTCATTAATCCGTTACCAACTGTTTTGATATATACATTTACCTTTTAAGAGGAGGAAT |  | 0.276 | 
30 | CGACATGTCCCGCTTCTTTCATTAATCCGTTAGAAACTGTTTTGCTATATACATTAACCTTTTAAGAGGAGGAAT |  | 0.374 | 
